Test system: msfGFP reporter gene under control of BCD10
Type: cell-based, P. putida KT2440
Settings: 5 mM 3-FBz (inducible systems), 30 mM glucose, FIG. 6

B1: PEM7: constitutive promoter, SEQ ID NO: 59 (nucleic acid)
DNA: TTGTTGACAATTAATCATCGGCATAGTATATCGGCATAGTATAATACGACAAGGTGAGGAACTAAACC
modifications: expressed or natural sequence
- transcription initiation rate: quotient of OD630 nm-normalized fluorescence with the one of Ptac: 0.57
